From US20150265516A1 (Merck KGaA, published 2015)
Starred links: 1 amine or outer side, 2 acyl side, 3 side chain; linkers in the order of their positions; H or OH if unused. Non-standard residues stand in square brackets, D forms with d. Primed or numbered codes have the meaning given here. No end group written: not given here. Nhdg = N-hexadecylglycine, CCCCCCCCCCCCCCCCN(CC(=O)[*:2])[*:1]; Aib′ = 3-aminoisobutyric acid (as defined by the filing); Ac6c = NC1(C(=O)O)CCCCC1; NMeA = CN[C@@H](C)C(=O)O; Ac5c = NC1(C(=O)O)CCCC1

What was measured:
[1] = molecular target: T1, purified human integrin αvβ3 from term placenta (human, UniProt P06756 31-1048; P05106 27-788); assay: receptor inhibition assay: coated placental αvβ3, competitor ligand biotinylated vitronectin
T1 construct: mature; also called human placental αvβ3; vitronectin receptor avβ3
Method: Method: 1 μg ml⁻¹ biotin-ligand is incubated with 1 μg ml⁻¹ coated receptor in the presence of serially diluted peptides. After 3 h at 30° C. bound ligand was measures by anti-biotin—alkaline phosphatase detection.

[2] = molecular target: T2, recombinant human integrin αvβ3 (human, UniProt P06756 31-992; P05106 27-718); assay: ligand inhibition ELISA: immobilized recombinant human αvβ3, competitor ligand biotinylated human serum vitronectin
T2 construct: also called recombinant human αvβ3 integrin; avβ3

[3] = molecular target: T2, recombinant human integrin αvβ3; assay: isolated integrin binding assay: adsorbed recombinant human αvβ3, competitor ligand biotinylated human plasma vitronectin
Method: After 3 hours at 37° C., bound ligand is detected using alkaline-phosphatase labelled anti-biotin MAbs (Sigma, St. Louis, Mo.).

[4] = molecular target: T1, purified human integrin αvβ3 from term …; assay: solid-phase inhibition assay: immobilized placental αvβ3, competitor ligand vitronectin

T2 sequence (P06756 31-992, chain 1 of 2): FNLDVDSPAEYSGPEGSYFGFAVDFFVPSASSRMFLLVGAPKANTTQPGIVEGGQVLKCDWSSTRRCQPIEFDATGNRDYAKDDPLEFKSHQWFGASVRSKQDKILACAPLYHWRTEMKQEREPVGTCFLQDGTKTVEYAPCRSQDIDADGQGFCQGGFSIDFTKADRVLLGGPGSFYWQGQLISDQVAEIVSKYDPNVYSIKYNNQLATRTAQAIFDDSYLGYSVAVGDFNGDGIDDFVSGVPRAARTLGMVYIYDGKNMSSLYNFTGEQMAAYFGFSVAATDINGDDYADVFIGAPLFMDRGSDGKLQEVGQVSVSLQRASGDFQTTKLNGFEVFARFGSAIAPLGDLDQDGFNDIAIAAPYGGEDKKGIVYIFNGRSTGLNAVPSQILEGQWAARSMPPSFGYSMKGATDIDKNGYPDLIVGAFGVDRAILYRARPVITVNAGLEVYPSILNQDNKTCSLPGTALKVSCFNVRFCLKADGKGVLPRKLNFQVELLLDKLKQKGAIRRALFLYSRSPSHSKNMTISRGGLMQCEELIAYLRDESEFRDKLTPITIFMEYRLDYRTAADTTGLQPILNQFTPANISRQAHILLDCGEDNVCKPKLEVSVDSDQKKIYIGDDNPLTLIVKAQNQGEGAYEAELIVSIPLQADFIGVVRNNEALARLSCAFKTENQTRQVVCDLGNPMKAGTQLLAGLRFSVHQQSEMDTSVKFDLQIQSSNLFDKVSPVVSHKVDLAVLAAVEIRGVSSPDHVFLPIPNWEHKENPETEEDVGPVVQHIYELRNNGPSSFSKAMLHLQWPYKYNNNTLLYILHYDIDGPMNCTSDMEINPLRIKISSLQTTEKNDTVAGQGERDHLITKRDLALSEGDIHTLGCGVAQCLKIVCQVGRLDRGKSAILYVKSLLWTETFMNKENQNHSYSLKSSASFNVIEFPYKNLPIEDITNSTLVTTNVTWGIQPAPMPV
T2 sequence (P05106 27-718, chain 2 of 2): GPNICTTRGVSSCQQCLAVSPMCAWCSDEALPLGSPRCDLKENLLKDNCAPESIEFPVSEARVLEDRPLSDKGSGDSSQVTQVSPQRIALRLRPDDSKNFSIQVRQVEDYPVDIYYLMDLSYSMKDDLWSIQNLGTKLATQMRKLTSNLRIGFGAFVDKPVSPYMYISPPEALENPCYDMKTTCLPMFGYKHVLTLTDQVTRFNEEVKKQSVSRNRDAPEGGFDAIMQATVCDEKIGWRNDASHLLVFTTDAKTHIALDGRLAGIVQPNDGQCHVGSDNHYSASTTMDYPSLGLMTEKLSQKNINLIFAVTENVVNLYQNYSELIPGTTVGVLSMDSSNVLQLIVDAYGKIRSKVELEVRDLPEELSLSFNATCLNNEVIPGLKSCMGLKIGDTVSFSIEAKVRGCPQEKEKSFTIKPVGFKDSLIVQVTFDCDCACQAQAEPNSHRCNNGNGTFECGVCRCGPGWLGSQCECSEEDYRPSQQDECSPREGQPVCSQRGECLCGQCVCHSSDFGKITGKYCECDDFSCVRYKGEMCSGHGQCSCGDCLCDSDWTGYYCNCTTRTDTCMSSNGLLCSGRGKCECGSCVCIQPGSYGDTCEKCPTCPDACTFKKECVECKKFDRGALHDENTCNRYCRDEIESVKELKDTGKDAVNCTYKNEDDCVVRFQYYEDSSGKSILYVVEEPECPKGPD
T1 sequence (P06756 31-1048, form in doubt, chain 1 of 2): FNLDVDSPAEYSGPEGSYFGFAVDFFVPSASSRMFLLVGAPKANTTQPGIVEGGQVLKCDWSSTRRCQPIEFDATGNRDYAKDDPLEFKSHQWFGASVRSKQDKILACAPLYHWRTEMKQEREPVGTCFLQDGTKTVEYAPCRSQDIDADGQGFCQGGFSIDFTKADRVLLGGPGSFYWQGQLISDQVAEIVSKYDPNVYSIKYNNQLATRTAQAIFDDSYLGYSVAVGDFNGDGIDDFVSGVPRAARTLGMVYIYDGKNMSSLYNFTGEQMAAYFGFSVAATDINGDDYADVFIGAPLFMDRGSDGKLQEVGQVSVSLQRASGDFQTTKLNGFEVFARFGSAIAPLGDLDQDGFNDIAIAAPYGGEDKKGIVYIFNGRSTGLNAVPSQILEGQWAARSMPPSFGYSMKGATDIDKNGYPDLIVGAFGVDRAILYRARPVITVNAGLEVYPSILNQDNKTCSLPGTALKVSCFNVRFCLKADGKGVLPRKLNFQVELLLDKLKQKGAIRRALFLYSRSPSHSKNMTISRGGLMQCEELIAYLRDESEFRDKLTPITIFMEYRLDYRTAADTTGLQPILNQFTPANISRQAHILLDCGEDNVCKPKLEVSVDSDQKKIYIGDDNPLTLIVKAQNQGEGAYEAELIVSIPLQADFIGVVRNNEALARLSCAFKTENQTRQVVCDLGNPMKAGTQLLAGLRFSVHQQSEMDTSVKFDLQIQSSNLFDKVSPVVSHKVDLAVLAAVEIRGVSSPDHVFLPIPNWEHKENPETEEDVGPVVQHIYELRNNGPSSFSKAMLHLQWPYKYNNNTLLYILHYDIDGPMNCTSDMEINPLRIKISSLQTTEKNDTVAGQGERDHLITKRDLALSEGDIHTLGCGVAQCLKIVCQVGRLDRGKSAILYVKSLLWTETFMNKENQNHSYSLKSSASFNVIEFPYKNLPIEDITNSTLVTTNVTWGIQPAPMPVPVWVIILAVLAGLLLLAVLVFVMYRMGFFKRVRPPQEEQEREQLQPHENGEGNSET
T1 sequence (P05106 27-788, form in doubt, chain 2 of 2): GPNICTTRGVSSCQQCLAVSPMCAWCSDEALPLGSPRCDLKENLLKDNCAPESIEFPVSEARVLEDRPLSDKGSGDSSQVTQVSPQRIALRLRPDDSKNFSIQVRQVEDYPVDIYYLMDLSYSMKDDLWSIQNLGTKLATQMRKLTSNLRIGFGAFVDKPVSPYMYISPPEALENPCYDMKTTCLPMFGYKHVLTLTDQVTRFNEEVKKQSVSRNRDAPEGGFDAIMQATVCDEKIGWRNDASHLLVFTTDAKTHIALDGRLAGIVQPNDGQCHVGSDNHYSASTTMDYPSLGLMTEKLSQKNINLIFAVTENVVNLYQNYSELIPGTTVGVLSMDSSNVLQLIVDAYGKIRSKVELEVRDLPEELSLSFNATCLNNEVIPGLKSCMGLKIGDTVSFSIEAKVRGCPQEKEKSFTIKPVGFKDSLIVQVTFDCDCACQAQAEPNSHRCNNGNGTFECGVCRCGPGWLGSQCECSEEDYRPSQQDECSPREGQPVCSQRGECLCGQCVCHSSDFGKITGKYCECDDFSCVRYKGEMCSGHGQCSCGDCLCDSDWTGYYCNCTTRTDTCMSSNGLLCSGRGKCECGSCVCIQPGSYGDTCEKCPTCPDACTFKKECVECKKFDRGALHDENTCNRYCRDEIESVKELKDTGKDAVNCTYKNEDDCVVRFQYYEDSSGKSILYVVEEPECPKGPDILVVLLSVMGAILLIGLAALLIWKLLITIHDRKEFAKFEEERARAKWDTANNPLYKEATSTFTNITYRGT

IC50 [1] [nM]	Binder	further results
9	cyclo(RGD[dF][Ac5c]) (X = non-natural residue Acpa) [Cyclo-(Arg-Gly-Asp-DPhe-Acpa)]	
20	cyclo(RGD[dF][Aib′]) (X = non-natural residue Aib) [Cyclo-(Arg-Gly-Asp-DPhe-Aib)]	
400	RGDFG (head-to-tail cyclic (homodetic)) [Cyclo(Arg-Gly-Asp-Phe-Gly)]	

The next lines start with the binder.

Binder	IC50 [1] [nM]	further results
cyclo(RGD[dF]X) (not fully specified (residue 5); printed as Cyclo-(Arg-Gly-Asp-DPhe-hPro), X = non-natural residue hPro) [Cyclo-(Arg-Gly-Asp-DPhe-hPro)]	170	
cyclo(RGD[dF][NMeA]) (SMILES C[C@H]1C(=O)N[C@@H](CCCNC(=N)N)C(=O)NCC(=O)N[C@@H](CC(=O)O)C(=O)N[C@H](Cc2ccccc2)C(=O)N1C) [Cyclo-(Arg-Gly-Asp-DPhe-(NMe)Ala)]		IC50 [2]: 24 nM
cyclo(RGD[dF][Ac6c]) (SMILES N=C(N)NCCC[C@@H]1NC(=O)C2(CCCCC2)NC(=O)[C@@H](Cc2ccccc2)NC(=O)[C@H](CC(=O)O)NC(=O)CNC1=O, X = non-natural residue Acha; also called CPPC 1; Cyclopeptide) [Cyclo-(Arg-Gly-Asp-DPhe-Acha)]	2	IC50 [3]: 2.1 nM
cyclo(RGDF[Nhdg]) (SMILES CCCCCCCCCCCCCCCCN1CC(=O)N[C@@H](CCCNC(=N)N)C(=O)NCC(=O)N[C@@H](CC(=O)O)C(=O)N[C@@H](Cc2ccccc2)C1=O, Phe at 4 is printed without D; residue 5 is glycine carrying an N-hexadecyl group) [Cyclo-(Arg-Gly-Asp-Phe-Nhdg)]	8	
cyclo(RAD[dF]V) (SMILES CC(C)[C@@H]1NC(=O)[C@@H](Cc2ccccc2)NC(=O)[C@H](CC(=O)O)NC(=O)[C@H](C)NC(=O)[C@H](CCCNC(=N)N)NC1=O, also called cyclo(RADfV)) [Cyclo-(Arg-Ala-Asp-DPhe-Val)]		IC50 [4]: 4000 nM
GRGDSPK-OH (Linear peptide with free C-terminus; also called GRGDSPK peptide) [Gly-Arg-Gly-Asp-Ser-Pro-Lys-OH]		IC50 [3]: 120 nM
